Assays:
[1] = endogenous peptide; cited from earlier work
Procedure: Neurotensin receptor imaging has emerged as a promising target for imaging and therapy. The endogenous neurotensin peptide has a short half-life in blood (<6 min), limiting its direct radiolabeling and use. Most developments in neurotensin receptor imaging have been focused on increasing serum stability and improving specificity for NTSR1 [1]. Previously, neurotensin receptor binding peptides have been investigated as imaging and therapeutic agents when radiolabeled with technetium-99m, indium-111, gallium-68, copper-64, actinium-225, and leutetium-177 [10, 11, 12, 13]. Specif ...

in vivo = conditions: male, athymic nude, mouse, total radioactivity
Procedure: All animal procedures were approved by the University of Alabama at Birmingham IACUC, animal protocol number IACUC-22618. Male athymic nude mice (Charles River, Wilmington, MA, USA) were allowed to acclimate for at least 72 h before any procedures were performed. For tumor implantation, mice were subcutaneously injected with 300,000 HT29 cells 3 weeks before imaging. […] Mice were imaged on a GNEXT microPET/CT (Sophie, Springfield, VA, USA). After the last imaging timepoint, mice were euthanized and organs were taken for biodistribution. Organ weights and radioactive counting were collected on a Hidex gamma counter (Lablogic, Clair-Mel City, FL, USA). Images were processed and SUVs were calculated using VivoQuant software (Invicro, Boston, MA, USA).

neurotensin peptide: 13-amino-acid peptide which binds to neurotensin receptors 1–3
half-life in blood [1]: < 6 min

CC(=O)N[C@@H](CCCCNC(=O)CN1CCN(CC(=O)O)CCN(CC(=O)O)CC1)C(=O)N1CCC[C@H]1C(=O)N(C)[C@@H](CCCNC(=N)N)C(=O)N[C@@H](CCCNC(=N)N)C(=O)N1CCC[C@H]1C(=O)N[C@@H](Cc1ccc(O)cc1)C(=O)N[C@H](C(=O)N[C@@H](CC(C)C)C(=O)O)C(C)(C)C [[^64Cu] Cu-NOTA-NT-20.3, metal not drawn]
SUV at 1 h (in vivo; liver SUV): 0.123 ± 0.029 SUV
SUV at 4 h (in vivo; liver SUV): 0.178 ± 0.042 SUV
SUV at 24 h (in vivo; liver SUV): 0.168 ± 0.056 SUV

CC(=O)N[C@@H](CCCCNC(=O)CN1CCN(CC(=O)O)CCN(CC(=O)O)CC1)C(=O)N1CCC[C@H]1C(=O)N(C)[C@@H](CCCNC(=N)N)C(=O)N[C@@H](CCCNC(=N)N)C(=O)N1CCC[C@H]1C(=O)N[C@@H](Cc1ccc(O)cc1)C(=O)N[C@H](C(=O)N[C@@H](CC(C)C)C(=O)O)C(C)(C)C [[^55Co] Co-NOTA-NT-20.3]
SUV at 1 h (in vivo; 1 ug, heart SUV): 0.033 ± 0.002 SUV
SUV at 4 h (in vivo; 1 ug, heart SUV): 0.015 ± 0.002 SUV
SUV at 24 h (in vivo; 1 ug, heart SUV): 0.004 ± 0.001 SUV

— article PMC9781609 (Pharmaceutics, 2022)
